For this experiment, the target named is UbcH10^LR (as used in surface plasmon resonance) (human). In words: SPR. On the technique in general: In SPR one partner is held on a chip, and binding of the other changes the refractive index at the surface.

Consider 1 substance from paper PMC4608048.

“APC/C^Cdh1.Hsl1 (from UniProt Q9H1A4;Q9UJX6;P30260;Q9UJX5;Q9UJX4;Q13042;Q9UJX3;Q9UJX2;Q9UM13;Q9NYG5;Q8NHZ8;Q9BS18;P60006;Q96DE5;Q9UM11-2;P34244) (complex)” yielded a K^kin d (fast) of 24 nM, a K^kin d (slow) of 23 nM, a koff (fast) of 0.04 s⁻¹ and a koff (slow) of 0.0046 s⁻¹. In addition, the kon (fast) was determined as 1.7e+06 M⁻¹ s⁻¹ and the kon (slow) is 170000 M⁻¹ s⁻¹.
